2 molecules from PMC9280360 can be followed below.

Residue numbers refer to the chain shown, from its start. Names and notes keep the numbering of the source. Values joined by “and” are separate entries in the source; they are usually repeats but may differ in a detail not shown here. Equal entries are not always repeated.

The assay concerns the target proprietary Ral effector protein (Ral-BP binding plate of the RalA G-LISA Activation Assay Kit). Briefly: ELISA; RalA G-LISA Activation Assay Kit; purified RalA incubated in the presence or absence of 15 uM GTP for 1.5 h at 25 C, then 50 ng of the RalA/GTP mixture applied to the Ral-BP binding plate (effector immobilised); n = 3.

B1: Flag-tagged mutant RalA (RALA c.G482A, p.Arg161Gln) (natural protein)
chain: MAANKPKGQNSLALHKVIMVGSGGVGKSALTLQFMYDEFVEDYEPTKADSYRKKVVLDGEEVQIDILDTAGQEDYAAIRDNYFRSGEGFLCVFSITEMESFAATADFREQILRVKEDENVPFLLVGNKSDLEDKRQVSVEEAKNRAEQWNVNYVETSAKTQANVDKVFFDLMREIRARKMEDSKEKNGKKKRKSLAKRIRERCCIL
As for B1, the downstream effector binding (G-LISA signal) was 3.24 and 3.33.

B2: Flag-tagged wild-type RalA (RALA, NM_005402) (natural protein)
chain: B1 chain with Q161R
For the molecule B2, the downstream effector binding (G-LISA signal) is 1.74.
